Measurements taken from article PMC8141872.

Molecular target: GST-fused PINCH-1 LIM5 domain (residues 249-325) (human), P48059
Assay: BLI; BLItz; GST-fused PINCH protein or GST (0.05 mg/ml) loaded on anti-GST biosensor, Rsu-1 WT or mutant in the mobile phase; 20 mM Tris pH 7.5, 150 mM NaCl, 1 mg/ml BSA, 0.05% Tween-20; 1:1 global fit; at least three measurements
Details: remark: other sources report otherwise

GST-fused PINCH-1 LIM5 domain (residues 249-325) (human), P48059, sequence (P48059 249-325): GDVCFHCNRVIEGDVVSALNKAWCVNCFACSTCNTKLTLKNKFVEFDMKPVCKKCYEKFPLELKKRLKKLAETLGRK

Kd: 33.3 µM
B1: Rsu-1 triple mutant R2W (Phe71Arg, Arg165Trp, Asp166Arg), Q15404 1-277 (natural protein)
chain: MSKSLKKLVEESREKNQPEVDMSDRGISNMLDVNGLFTLSHITQLVLSHNKLTMVPPNIAELKNLEVLNFRNNQIEELPTQISSLQKLKHLNLGMNRLNTLPRGFGSLPALEVLDLTYNNLSENSLPGNFFYLTTLRALYLSDNDFEILPPDIGKLTKLQILSLWRNDLISLPKEIGELTQLKELHIQGNRLTVLPPELGNLDLTGQKQVFKAENNPWVTPIADQFQLGVSHVFEYIRSETYKYLYGRHMQANPEPPKKNNDKSKKISRKPLAAKNR
